Results published in US20250270295A1 (ALBERT LUDWIGS UNIVERSITAET FREIBURG, published 2025).

T1: soluble human ICOSL ectodomain, V5-His tagged (sICOSL-V5His) (human, UniProt O75144 19-256)
T1 construct: extracellular domain; Control protein with the same tags as the vFcγRs
T1 sequence: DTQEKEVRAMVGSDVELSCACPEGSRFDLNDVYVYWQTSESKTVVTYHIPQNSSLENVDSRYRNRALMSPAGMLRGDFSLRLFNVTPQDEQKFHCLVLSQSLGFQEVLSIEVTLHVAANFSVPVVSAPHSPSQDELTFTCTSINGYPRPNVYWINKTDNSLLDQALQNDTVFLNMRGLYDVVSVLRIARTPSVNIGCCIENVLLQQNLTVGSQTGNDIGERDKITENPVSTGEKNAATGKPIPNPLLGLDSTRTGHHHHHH

T2: gp34wt on stably transduced HeLa cells (HCMV strain AD169, UniProt P16809 24-234)
T2 construct: whole, on cells; also called plasma membrane exposed gp34wt
T2 sequence: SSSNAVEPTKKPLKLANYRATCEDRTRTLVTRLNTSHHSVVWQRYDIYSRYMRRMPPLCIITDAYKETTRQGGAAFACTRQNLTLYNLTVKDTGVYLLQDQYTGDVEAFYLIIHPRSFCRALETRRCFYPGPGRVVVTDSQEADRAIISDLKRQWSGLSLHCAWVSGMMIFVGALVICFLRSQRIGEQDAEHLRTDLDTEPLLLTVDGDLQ

T3: gp34mtrp (W65F) on stably transduced HeLa cells (HCMV strain AD169, UniProt P16809 24-234)
T3 construct: whole, on cells; also called plasma membrane exposed gp34mtrp
T3 sequence: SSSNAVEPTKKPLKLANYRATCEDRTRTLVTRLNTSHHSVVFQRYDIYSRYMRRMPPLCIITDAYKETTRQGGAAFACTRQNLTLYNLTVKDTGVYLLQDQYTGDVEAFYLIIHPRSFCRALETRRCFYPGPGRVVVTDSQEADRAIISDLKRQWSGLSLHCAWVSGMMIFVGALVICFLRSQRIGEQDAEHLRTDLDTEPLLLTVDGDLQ

T4: soluble gp34 wild type ectodomain, V5-His tagged (sgp34wt-V5-His) (HCMV strain AD169)
T4 construct: Entry holds signal peptide 1-23 (left out), ectodomain, V5 tag and His tag; Forms monomers, dimers and higher oligomers; also called sol gp34 wt; gp34 1-179
T4 chain: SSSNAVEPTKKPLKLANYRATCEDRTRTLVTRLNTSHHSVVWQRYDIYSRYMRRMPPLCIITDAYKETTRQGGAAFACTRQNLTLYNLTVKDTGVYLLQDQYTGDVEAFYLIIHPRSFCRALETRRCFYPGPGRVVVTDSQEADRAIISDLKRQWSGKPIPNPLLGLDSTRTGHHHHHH

T5: soluble gp34 ectodomain W65F, V5-His tagged (sgp34mtrp-V5-His) (HCMV strain AD169)
T5 construct: signal peptide 1-23 left out; V5 and His tags are in the entry; Forms only monomers and dimers; also called sol gp34mtrp; gp34 1-179 W65F
T5 chain: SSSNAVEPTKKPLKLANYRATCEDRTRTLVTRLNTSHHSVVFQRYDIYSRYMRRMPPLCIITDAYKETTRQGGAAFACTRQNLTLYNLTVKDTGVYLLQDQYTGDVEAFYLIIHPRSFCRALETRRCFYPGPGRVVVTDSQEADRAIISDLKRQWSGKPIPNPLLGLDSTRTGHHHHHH


How the values were obtained:
[1] = biological target: T1, soluble human ICOSL ectodomain, V5-His …; experiment: western blot
[2] = biological target: T2, gp34wt on stably transduced HeLa cells; experiment: flow cytometry, HeLa, 1 µg/ml
[3] = biological target: T3, gp34mtrp (W65F) on stably transduced …; experiment: flow cytometry, HeLa
[4] = biological target: T4, soluble gp34 wild type ectodomain, …; experiment: blocking of sgp34wt binding to immobilized human IgG, ELISA
Description: FIG. 44: IgG blocking ability by anti-gp34mtrp mAbs. vFcγR gp34 is an HCMV encoded IgG-Fc-binding. Anti-gp34mtrp-specific mAbs (in titration) were pre-incubated with recombinant, sgp34wt (constant amount 1 μg/ml) and added to IgG-immobilized ELISA plates. […] Dose-dependent potential of mAbs used for blocking is indicated. Effect by non-specific mouse IgG isotype IgG1 is shown. In addition, binding of sgp34wt to immobilized IgG in absence of any mAb is depicted.
To test if anti-gp34wt specific mAbs can interfere with IgG-binding ability of gp34 and human IgG. Therefore, recombinant, sgp34wt was pre-incubated with indicated anti-gp34wt specific mAbs, mouse IgG isotype or PBS only. Next, antibody bound sgp34wt was incubated on IgG-immobilized ELISA plates.
Anti-gp34wt-specific mAbs (in titration) were pre-incubated with recombinant, sgp34wt (constant amount 1 μg/ml) and added to IgG-immobilized ELISA plates. […] Dose-dependent potential of mAbs used for blocking is indicated. […] In addition, binding of sgp34wt to immobilized IgG in absence of any mAb is depicted.

[5] = biological target: T4, soluble gp34 wild type ectodomain, …; experiment: sgp34wt pre-incubated with mAb, ELISA on CRP
Excerpt: In addition, binding of sgp34wt to immobilized CRP in absence of any mAb is depicted.

[6] = biological target: T4, soluble gp34 wild type ectodomain, …; experiment: sgp34wt pre-incubated with mAb, ELISA on FcRn
Description: Furthermore, the gp34wt and FcRn interaction was investigated whereby various anti-gp34 mAbs were analyzed and their potential to block this interaction was identified. Experiments were performed as described before for IgG-blocking ELISA, but this time using immobilized FcRn as a novel gp34-ligand.
In addition, binding of sgp34wt to immobilized FcRn in absence of any mAb is depicted.

[7] = biological target: T5, soluble gp34 ectodomain W65F, V5-His …; experiment: ELISA mtrp

Row | Binder | binding result [1] | binding result [2] | binding result [3] | IC50 [4] | percent blocking of gp34-CRP-binding [5] | percent blocking of gp34 FcRn-binding [6] | binding result [7]
1 | gp34wt.15 (antibody, V domains shown, mouse IgG1 hybridoma mAb; leader in entries; also called anti gp34 clone wt.15) VH: QVKLQQSGPELVKPGASVKMSCKASGYTFRSYYIHWVKQRPGQGLEWIGWNNPGDGTAKYNEKFKGKTTLTADKSSSTAYMLLSSLTSEDSAIYFCASFNTPDYWGQGTSVTVSS VL: not shown | no binding | binds | no binding (tested: 1 µg/ml) | 0.12 µg/mL |  |  | 
2 | gp34mtrp.05 (antibody, V domains shown, mouse IgG1 hybridoma mAb; leader in entries; also called anti gp34 clone mtrp.05) VH: EVKLLQSGPEVKKPGETVKISCKASGYTFTNYGMSWLRQAPGKGLKWMGWINTYTGEPTYADDFKGRFAFSLETSASTAYFQINNLKDEDTTTYFCARRAFGGLDYWGQGTSVTVSS VL: DIVMTQSPLSLPVSLGDQASISCRSSQSIVYTNGNTYLEWYLQKPGQSPKLLIYKVSNRFSGVPDRFSGSGSGTDFTLKISRVEAEDLGVYYCFQGSHVPWTFGGGTKLEIK |  |  |  | 5.34 µg/mL | ~50% | ≤ 50% | binds
3 | gp34mtrp.06 (antibody, V domains shown, mouse IgG1 hybridoma mAb; leader in entries; also called anti gp34 clone mtrp.06) VH: EVQLLQSGPEVKKPGETVKISCKASGYTFTNYGMSWLRQAPGKGLKWMGWINTYTGEPTYADDFKGRFAFSLETSASTAYFQINNLKNEDTTTYFCARRAFGGLDYWGQGTSVTVSS VL: DIVLTQSPLSLPVSLGDQASISCRSSQSIVYTNGNTYLEWYLQKPGQSPKLLIYKVSNRFSGVPDRFSGSGSGTDFTLKISRVEAEDLGVYYCFQGSHVPWTFGGGTKLEIK |  |  |  | 4.46 µg/mL | ~50% | ≤ 50% | binds
4 | gp34wt.13 (antibody, V domains shown, mouse IgG2a hybridoma mAb; leader in entries; also called anti gp34 clone wt.13) VH: EVQLVESGPELKKPGETVKISCKASGYAFTNYGMNWVKQTPGKGLKWMGWINTYTGKPTYADDFKGRFAFSLETSASSAYLQINNLKNEDTATYFCARRRGNSFDYWGQGTTLTVSS VL: DIVLTQSPSSLTVTAGEKVTMSCKSSQSLLNSGNQENCLTWYQQKPGQPPRLLIYWASTRESGVPDRFTGSGSGTDFTLTISSVQAEDLAVYYCQNDYTYPLTFGAGTKLELK | no binding |  |  |  |  |  | 
5 | gp34wt.14 (antibody, V domains shown, mouse IgG2a hybridoma mAb; leader in entries; also called anti gp34 clone wt.14) VH: QVKLLQSGPELKKPGETVKISCKASGYAFTNYGMNWVKQTPGKGLKWMGWINTYTGKPTYADDFKGRFAFSLETSASSAYLQINNLKNEDTATYFCARRRGNSFDYWGQGTTLTVSS VL: DIVITQSPSSLTVTAGEKVTMSCKSSQSLLNSGNQENCLTWYQQKPGQPPRLLIYWASTRESGVPDRFTGSGSGTDFTLTISSVQAEDLAVYYCQNDYTYPLTFGAGTKLELK | no binding |  |  |  |  |  | 
6 | gp34wt.09 (antibody, V domains shown, mouse IgG1 hybridoma mAb; leader in entries; also called anti gp34 clone wt.09) VH: EVQLEQSGPELVKPGASVKMSCKASGYTFTRPYIHWVKQRPGQGLEWIGWIYPGDGITKYNEKFKGKITLTADKSSSAAYMLLSSLTSEDSAIYFCASFTTPVYWGQGTSVTVSS VL: not shown | no binding | binds | no binding (tested: 1 µg/ml) | 0.063 µg/mL |  |  | no binding
7 | gp34wt.11 (antibody, V domains shown, mouse IgG1 hybridoma mAb; leader in entries; also called anti gp34 clone wt.11) VH: QVQLEESGPELVKPGASVKMSCKASGYTVTRSYIHWVKQRPGQGLEWIGWIYPGDGSTKYNEKFKGKTTLTVDKSSSTAYMLLSSLTSEDSAIYFCASFTTPVYWGQGTSVTVSS VL: not shown | no binding | binds | no binding (tested: 1 µg/ml) | 0.077 µg/mL |  |  | no binding
8 | gp34wt.10 (antibody, V domains shown, mouse IgG1 hybridoma mAb; leader in entries; also called anti gp34 clone wt.10) VH: EVKLEQSGPELVKPGASVKMSCKASGYTFTRPYIHWVKQRPGQGLEWIGWIYPGDGITKYNEKFKGKITLTADKSSSAAYMLLSSLTSEDSAIYFCASFTTPVYWGQGTSVTVSS VL: not shown | no binding | binds | no binding (tested: 1 µg/ml) | 0.089 µg/mL |  |  | no binding
9 | gp34wt.12 (antibody, V domains shown, mouse IgG1 hybridoma mAb; leader in entries; also called anti gp34 clone wt.12) VH: EVKLQESGPELVKPGASVKMSCKASGYTVTRSYIHWVKQRPGQGLEWIGWIYPGDGSTKYNEKFKGKTTLTVDKSSSTAYMLLSSLTSEDSAIYFCASFTTPVYWGQGTSVTVSS VL: not shown | no binding | binds | no binding (tested: 1 µg/ml) | 0.07 µg/mL |  |  | no binding
10 | gp34mtrp.03 (antibody, V domains shown, mouse IgG1 hybridoma mAb; leader in entries; also called anti gp34 clone mtrp.03) VH: EVQLEESGTVLARPGASVKMSCKASGYTFTSYWMHWVKQRPGQGLEWIGAIYPGNSDTGYNQKFKGKARLTAVTSTSTAYLELSSLTDEDSAVYFCTRLGYGDYWGQGTTLTVSS VL: DIVLTQTPSSMYASLGERVTITCKASQDINSYLTWFQQKPGKSPKTLIYRANRLVDGVPSRFSGSGSGQDYSLTINSLDYEDMGIYYCLQYDEFPPTFGGGTKLEIK |  |  |  | 0.152 µg/mL | ~50% | ≤ 50% | binds
11 | gp34mtrp.04 (antibody, V domains shown, mouse IgG1 hybridoma mAb; leader in entries; also called anti gp34 clone mtrp.04) VH: EVKLVQSGTVLARPGASVKMSCKASGYTFTSYWMHWVKQRPGQGLEWIGAIYPGNSDTGYNQKFKGKARLTAVTSTSTAYLELSSLTDEDSAVYFCTRLGYGDYWGQGTTLTVSS VL: DIVMTQTPSSMYASLGERVTITCKASQDINSYLTWFQQKPGKSPKTLIYRANRLVDGVPSRFSGSGSGQDYSLTINSLDYEDMGIYYCLQYDEFPPTFGGGTKLEIK |  |  |  | 0.147 µg/mL | ~50% | ≤ 50% | binds
12 | gp34wt.07 (antibody, V domains shown, mouse IgG1 hybridoma mAb; leader in entries; also called anti gp34 clone wt.07) VH: QVKLEESGPELVKTGASVKISCKASGYSFTSYQIYWVKQSHGKSLEWIGHISCYNGATSYNQKFKDKATFTVDTSSSTAYMQFNSLTSEDSAVYFCARYDYAPDYYAMDYWGQGTSVTVSS VL: DIVLTQTPASLAVSLGQRATISCRASESVDSYGNSFMHWYQQKPGQPPKLLIYLASNLESGVPARFSGSGSRTDFTLTIDPVEAEDAAIYYCQQNNEDPLTFGGGTKLELK | no binding |  | no binding (tested: 1 µg/ml) | 0.447 µg/mL |  |  | no binding
13 | gp34wt.08 (antibody, V domains shown, mouse IgG1 hybridoma mAb; leader in entries; also called anti gp34 clone wt.08) VH: EVQLEQSGPELVKTGASVKISCKASGYSFTSYQIYWVKQSHGKSLEWIGHISCYNGATSYNQKFKDKATFTVDTSSSTAYMQFNSLTSEDSAVYFCARYDYAPDYYAMDYWGQGTSVTVSS VL: DIVMTQTPASLAVSLGQRATISCRASESVDSYGNSFMHWYQQKPGQPPKLLIYLASNLESGVPARFSGSGSRTDFTLTIDPVEAEDAAIYYCQQNNEDPLTFGGGTKLELK | no binding |  | no binding (tested: 1 µg/ml) | 0.494 µg/mL |  |  | no binding
